Test system: K4 kissing-loop RNA reporter
Assay: apparent KD of K4 kissing-loop reporter; higher = weaker reporter binding
Details: Eterna round: R107
Protocol: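 RNA-MaP round R107: designed RNA switches with theophylline, tryptophan, arginine or FMN aptamers are transcribed on-chip within common flanks. They are titrated with a labelled K4 kissing-loop RNA reporter in RNA-MaP buffer (100 mM Tris pH 7.5, 80 mM KCl, 4 mM MgCl2), without ligand or with the indicated ligand. Median apparent KD per design.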

[1] = input ligand: theophylline 20 uM
[2] = input ligand: tryptophan 2.4 mM
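Note: bound reporter read as fluorescence of individual clusters on recovered sequencing chips by microscopy, with normalized cluster intensities fitted with a binding model.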

| Sequence | apparent KD of K4 kissing-loop reporter (input ligand: FMN 200 uM) [nM] | apparent KD of K4 kissing-loop reporter (input ligand: arginine 13.2 mM) [nM] | apparent KD of K4 kissing-loop reporter (input ligand: none) [nM] | apparent KD of K4 kissing-loop reporter [1] [nM] | apparent KD of K4 kissing-loop reporter [2] [nM] |
| --- | --- | --- | --- | --- | --- |
| GGGAGUAGUGCGGCCGCCACUGUGAGGGAAGAAGAAUAUAGUGAUGUUAUAUAGGAAGGGAAGAAUAGGACCGGGCAUUAGAUUU [SSTRyptB.aB] | 225 | 208 | 245 | 230 | 198 |
| GGGCCUGGGCCCGUAAGGGCCUGGGCCCGUUAGGAUAUGACGUGAUUCAGAAGGGAUGGGUGGAGUGAUGUUCCACCCGAGAGGG [#2 Same State - FMN A Attempt #24 (HarryS)] | 111 | 97.7 | 117 | 88.5 | 96.7 |
| GGGUCAUGGAACGGAUAAGUGAUGUUUACCCGAGGACCGGUACGGCCGCCACUCGGUCGUUAUUUCCGACGUGCUGGUAAGACUA [theeternabot_exclusion_KL_Trp_A_10] | 336 | 253 | 378 | 348 | 475 |
| GGGUUUGCCGGAAGGAGCGCACUAUGGAGUGAUGUUCCAUGACCGCACAGCUUGCGGUCAGUGCAGGUAGGUCGCCGGUAGCGUU [Maedzaus] | 205 | 203 | 239 | 271 | 179 |
| GGUAGCAUGGCGGCCGCCACUGUCUACUGAGGCGGAGUGAUGUUCCGGUUUAAAUAACAAGUUCACAGGACCGGGCCAUGCUACC | 382 | 400 | 462 | 471 | 141 |
| GGUAGCAUGGCGGCCGCCACUUUUACUGGAUCGGAAACGAUCCAGUAUUGUGUAGUGAUGUUACAAAGGACCGGGCCAUGCUACC | 201 | 188 | 180 | 189 | 167 |
| GGUUCCUCAGUGAUGUUGAGGUGACCUCGGCAGGAUAUAGGCAUUACUAGAAGGGCCAAAAGAAUCCUGUGCAGCAACACAGGGA [Usrasoza] | 152 | 238 | 298 | 257 | 262 |
| GGUUUAUAGGAGGAUACCAGUACGGAUAAAGUACAUUAAUAGUAGAGUGAUGUUCUAAAGUACCCUUGGCAGCUUAGAUUAAGUU [ExTheophylB.I] | 87.1 | 177 | 133 | 209 | 74 |
| GUACGCUCUCGAGUGAUGUUCGGUAAUAGAGAGGAUAUCGCUUUUGCGAGAAGGCUCUGAAUGAGGAAACUCGUUCUGAGUGUAC [FMN A 19] | 436 | 362 | 389 | 358 | 419 |
| GUAUACAUAGAUCACCUUGUAGUGAUGUUGCGAGGACCGGUACGGCCGCCACUCGAAGUACGAAAGUACAAAGAUCUAUGUAUAC [Exclusion Trypto A - 1] | 251 | 131 | 258 | 136 | 45.9 |
| GUAUCGCUAGGAGGAUAUGUCGUUUUUCAUAGCAAUGGCUGUGCGGAGUGAUGUUCCGAUUUACCGGCAGAAGGCCUAGUGAUAC [FMN B 28] | 118 | 104 | 92.9 | 106 | 89.8 |
| GUAUGUGGAAACACGUACUUGUAUCCUAGGCAGGAUAUGCGGAAACGCAGAAGGGCCACCGGCGAGUUUAUCCAGUGAUGUUGGA [Ex FMN A 9] | 245 | 257 | 291 | 251 | 237 |
| GUAUGUUCGAAAGAACGUACAUCUUCGGAAGGAGCGCGUGAAAACGCAGGUAGGUCGCCGAAGUUAUUAGGUAGUGAUGUUACCU [Arginine A K4 8] | 128 | 99.1 | 101 | 109 | 114 |
| GUAUUUCCCUCGGAUACCAGUCAUCAUGAGUAUAGUGAUGUUGUACGUCCGGAUGAUUUUGACCCUUGGCAGCCGUCUCCUUGAA [theeternabot_sameState_KL_Theo_B_49] | 515 | 371 | 593 | 497 | 540 |
| GUCAAGGGUGCGGCCGCCACUUCUAGUGAUGUUAGUUUGUCUUCGUUCAACCGGCGUCUGCACGCAAGGACCGGGCACCAGCGAC [theeternabot_exclusion_KL_Trp_B_10] | 552 | 350 | 567 | 636 | 360 |
| GUCCCAGUGAUGUUGGUAGGCGAGCGGGAUACCAGCGAAGACUCACGCCCUUGGCAGCCCACAUAUCCCGCGUAGGGAUUAGCUC [Same State - Theophylline A (Freestyle 21)] | 364 | 315 | 431 | 415 | 347 |
| GUGAGGAUCAGAAGGAGCGUCGGCAAUCCAGUGAUGUUGGGUGUUGGUUAUAUUUAACGACGACAGGUAGGUCGCUGAUUUUCAA [Same State Arginie B GF 21] | 163 | 107 | 163 | 190 | 140 |
| GUGCAGUGAUGUUGCACGAGGAAAGACGAUACCAGCCGUAAAUAAGGCCCUUGGCAGCGUAAGCUAGCAUAAAGUAUGCUAGUCC [Onarve] | 108 | 102 | 103 | 77.1 | 85.2 |
| GUGCAGUGAUGUUGCACGAGGAAAGACGAUACCAGCCGUAAAUAUGGCCCUUGGCAGCGUGGGCUAGCACAAAAUGUGCUAGUCU [Zareatza] | 127 | 109 | 116 | 107 | 98.2 |
| GUGCGGCUAGUGAUGUUGGUUGCGUGGGAAGGAGCGCAGAAACAUGCAGGUAGGUCGCCCACAUCUCUGAUAAAAGAUUAAUUCA [Riares] | 304 | 254 | 235 | 338 | 239 |
| GUGGUUUACGUAGGAUAUCGGUGAUGAGUAAAUGGAGUGAUGUUCCGAGAUUGAAUAUGAGAUGAGCGAGAAGGGCGGUUUAUGC [FMN B Same State; Euporia Solution 3] | 60.8 | 77.3 | 63.1 | 89.7 | 54.7 |

| Sequence | apparent KD of K4 kissing-loop reporter (input ligand: FMN 200 uM) [nM] | apparent KD of K4 kissing-loop reporter (input ligand: arginine 13.2 mM) [nM] | apparent KD of K4 kissing-loop reporter (input ligand: none) [nM] | apparent KD of K4 kissing-loop reporter [1] [nM] | apparent KD of K4 kissing-loop reporter [2] [nM] |
| --- | --- | --- | --- | --- | --- |
| GUGUGUGAAAACACGCACUUAUAUCCUAGGCAGGAUAUGCGGAAACGCAGAAGGGCCACCGGCGAGAAAAUCCAGUGAUGUUGGA [Ex FMN A 6] | 281 | 245 | 273 | 192 | 251 |
| GUUACGCAUGGAAGGAGCGCACUCCGAUUGGGCGACACAGUGAUGUUGUGGUUCGUUCGAAUGCAGGUAGGUCGCCAUGUGUAAC [Ex Arginine B K4 20] | 181 | 153 | 140 | 153 | 142 |
| GUUACGCAUGGAAGGAGCGCAGGCUCAACAAAUAGCUCAGUGAUGUUGAGCAAAUUAAAACUGCAGGUAGGUCGCCAUGUGUAAC [Ex Arginine B K4 22] | 399 | 399 | 508 | 371 | 422 |
| GUUCUGAUGGAAACAUCGGAACAUACUGAUACCAGUAUCGAUAGAUACCCUUGGCAGCAGAAUCAGUAAUAACGAGUGAUGUUCG [Ex Theophylline A K4 2] | 275 | 247 | 293 | 273 | 257 |
| UAACAGUCUACGGCCGCCACUGACAAUCGGCAAGCAACAUGUGGGUGCGUAGUGAUGUUACAUAUCAGGACCGGGUAAGACAAAU [theeternabot_sameState_KL_Trp_B_32] | 327 | 392 | 235 | 345 | 438 |
| UAACGGCAACAAGGAUAUCCCAGUGAUGUUGGGAGAUAUUGACUAAGGAGACAUGAUAGGCAUAAUGGAGAAGGUGUGUUGGGAG [theeternabot_exclusion_KL_FMN_B_19] | 159 | 116 | 142 | 131 | 138 |
| UAACUGCAGUGAUGUUGCAGAUGUCCUGACUAGGAUAUCAGGAAACUGAGAAGGAGUCCCUUCUACUGCAACAAGAAGGAGGACA [[K1]-[K2]-[F1]'-[F1]-[F2]-[F2]'-[K]'-[F]''_Design2] | 396 | 347 | 436 | 391 | 408 |
| UAACUUGCAGUGAUGUUGCAAGAACUGGAUACCAGCAUGGAAACAUGCCCUUGGCAGCCAGAAGGUAUCCUCUUGCAUAGAUACU [Design3] | 216 | 178 | 195 | 220 | 192 |
| UAAGAAUAAGUAGCAGUGAUGUUGCUACUACGAGGACCGGUACGGCCGCCACUCGAGCCGUACAAAGUAGCAACUAGUACGAAUA [(H1)-(H2)-(Trp1)-(Trp2)-(T)'-(H)'-(T)''] | 231 | 194 | 223 | 246 | 365 |
| UAAGAAUAAGUAGCAGUGAUGUUGCUACUGCGAGGACCGGUACGGCCGCCACUCGAGUCCUCGAAACAUCACUGAACGAGGAAUA [whbob_SS_Tryp_A_m11] | 298 | 190 | 193 | 319 | 270 |
| UAAGAGGACCACUACAAGAGUCCUCGAAUACGAGGACCGGUACGGCCGCCACUCGAUAACUUGUAGUGAUGUUGCAAGUAAGAAU [BrourdMod 2 - Jieux - Same State Tryptophan A] | 80.4 | 85.6 | 85.3 | 97.4 | 46 |
| UAAGAUAUGAGGGAUACCAGCCAUAAGGAAAGUGUGAUGAGUGAUGUUCUGACAAGCCAAGGCCCUUGGCAGCUUUAAUAGCAUC [whbob_SS_Theo_B_th76] | 271 | 80.8 | 164 | 218 | 203 |
| UAAUCCUAAUGAUAAUAAUCAAGUGGUGGACGAGGACCGGUACGGCCGCCACUCGAAAAUGCAGUGAUGUUGUAAUACGGAUAAU [Exclusion - Tryptophan A (Freestyle 3)] | 288 | 460 | 372 | 541 | 247 |
| UACAUCGAGCAGAGUGAUGUUUUGUGCGAUACCAGCAAGUGCAAGUGCCCUUGGCAGCGCAAGCGGUUGUAUGUAGGACCGGACG [theeternabot_exclusion_KL_Theo_A_21] | 433 | 647 | 657 | 964 | 432 |
| UACAUUUUAUUAACACUAAAUACAACUGAAGGAGCGACAAUAAAGUCAGGUAGGUCGCAGAAUAAAUGAGUGAUGUUCAUUAUUG [JR_ExcArginiA_Sub016] | 60.2 | 101 | 63.8 | 92.8 | 51.2 |
| UACGCUUACUUGCGCGGUCCGAUUAACGAUACCAGCGAAGAAGCCCGCCCUUGGCAGCGUUAUAGAGUGAUGUUCACGGAGAUUA [theeternabot_sameState_KL_Theo_A_12] | 1100 | 872 | 989 | 1070 | 874 |
| UAGGAGUGAUGUUCCAUAUCUUGAGCCGAAGGAGCGCCUUUCUAGGCAGGUAGGUCGCGGCAGAAGGUACCAGUGAUGUUGGAAA [Same State Arginine A GF7] | 163 | 171 | 208 | 184 | 145 |
| UAGGCCGCAUACAUUAGAUAAGGUACCGAUACCAGCCUCGCACCAGGCCCUUGGCAGCGGCAUCAAAUGGGUAGUGAUGUUACCU [theeternabot_exclusion_KL_Theo_A_20] | 139 | 135 | 159 | 144 | 136 |
| UAGGCGGGAGAAGGAUAUCUGUGAAACCUGCUGCCCAAUAAGUGAUGUUUAUAAAGGAAGCGUCAUAGAGAAGGUCUAACAAGUA [theeternabot_sameState_KL_FMN_B_1] | 512 | 582 | 714 | 642 | 814 |
| UAGUCAUACAGAGGAUAUCGUAUGAGUGAUGUUCAUACGAUAUAAUCUAAUUGUAUAGAUGUUCGACGAGAAGGCUGUAUGACUA [FMN B Ex t1a] | 116 | 84.5 | 94.9 | 91.3 | 92.6 |
| UAGUCCUAGUGAUCCUUAUCAAGUGGUGGGCGAGGACCGGUACGGCCGCCACUCGACUAUGCAGUGAUGUUGUAAUCCGGACAAU [Exclusion - Tryptophan A (Freestyle 12)] | 669 | 488 | 633 | 742 | 541 |

From the supplement of paper PMC9170038
